Assay results published in paper PMC4579057 (Journal of molecular biology, 2015).

Biological target: the molecule itself
Assay: SEC

B1: APOBEC3B carboxy-terminal domain 193-CTD (Met-193 to the carboxy-terminal end) (domain or fragment)
chain: not shown
stoichiometry N: 2
